# Experimental data taken from US20230039165A1 (ENTHERA S R L, published 2023).
# Changes are numbered by the printed parent chain.
# B1: E01 (antibody, V domains shown)
# VH: QVQLVESGGGVVQPGRSLRLSCAASGFTFSSYGMHWVRQAPGKGLEWVAVISYDGSNKNYVDSVKGRFTISRDNSKNTLYLQMNSLRAEDTAVYYCARGGEYFYYYGLDVWGQGTTVTVSS
# VL: EIVMTQSPATLSLSPGERATLSCRASQSVSSSSLSWYQQKPGQAPRLLIYGASTRATGIPARFSGSGSGTDFTLTISSLQPEDFAVYYCQQDYNLPLTFGGGTKVEIK
# notes: From Trianni Mouse hybridomas: chimeric mAb with human VH and VK and mouse constant domains; also called anti-IGFBP3 mAb E01
# B2: E02 (antibody, V domains shown)
# VH: QVQLVQSGAEVKKPGASVKVSCKASGYTFSNYGISWVRQAPGQGLEWMGWINTYNGNTNYAQKLQGRVTMTTDTSTSTAYMALRGLRSDDTAVYYCARDRGYSSSPYYYYYGMDVWGQGTTVTVSS
# VL: B1 VL with S33H, P96T, L97I, G101Q, K104R, V105L
# notes: From Trianni Mouse hybridomas: chimeric mAb with human VH and VK and mouse constant domains; also called anti-IGFBP3 mAb E02
# B3: E08 (antibody, V domains shown)
# VH: B2 VH
# VL: B1 VL
# notes: From Trianni Mouse hybridomas: chimeric mAb with human VH and VK and mouse constant domains; also called anti-IGFBP3 mAb E08
# B4: E14 (antibody, V domains shown)
# VH: B2 VH
# VL: DIQMTQSPSSLSASIGDRVTITCRASQGISNYLAWFQQKPGKAPKSLIYAASSLQSGVPSKFSGSGSGTDFTLTISSLQPEDFATYYCQQYNSYPFTFGPGTKVDIK
# notes: From Trianni Mouse hybridomas: chimeric mAb with human VH and VK and mouse constant domains; also called anti-IGFBP3 mAb E14
# B5: E19 (antibody, V domains shown)
# VH: B1 VH
# VL: AIQLTQSPSSLSASVGDRVTITCRAGQGISSALAWYQQKPGKAPKILIYDASSLESGVPSRFSGSGSGTDFTLTISSLQPEDFATYYCQQFNNYPSTFGQGTKLEIK
# notes: From Trianni Mouse hybridomas: chimeric mAb with human VH and VK and mouse constant domains; also called anti-IGFBP3 mAb E19
# B6: E20 (antibody, V domains shown)
# VH: B2 VH
# VL: DIQMTQSPSSLSASVGDRVTITCRASQGIRNDLGWYQQKPGKAPKRLIYAASSLQSGVPSRFSGSGSGTEFTLTISSLQPEDFATYYCLQHNSYPYTFGQGTKLEIK
# notes: From Trianni Mouse hybridomas: chimeric mAb with human VH and VK and mouse constant domains; also called anti-IGFBP3 mAb E20
# B7: E24 (antibody, V domains shown)
# VH: B2 VH with S30T, T53A, D73V, S75Y, A82E, G85S
# VL: AIQMTQSPSSLSASVGDKVTITCRASQGIRNALGWYQQKPGTAPKLLIYAASSLQSGVPSRFSGSGSGTDFTLTISSLQPEDSATYYCLQDYNYPLTFGGGTKVEIK
# notes: From Trianni Mouse hybridomas: chimeric mAb with human VH and VK and mouse constant domains; also called anti-IGFBP3 mAb E24
# B8: M1 (antibody, V domains shown)
# VH: QVQLQESGPGLVKPSETLSLTCTVSGGSISTYYWSWIRQPPGKGLEWIGYIYYSGSTNYNPSLKSRVTISVDTSKNQFSLKLSSVTAADTAVYYCARYDIVTGYPHYYYYVMDVWGQGTTVTVSS
# VL: B7 VL with K18R, Q27R
# notes: Only variable domains are tied to M1; also called anti-IGFBP3 mAb M1; Anti-IGFBP3 M1
# B9: Human Ecto-TMEM219 (receptor)
# chain: THRTGLRSPDIPQDWVSFLRSFGQLTLCPRNGTVTGKWRGSHVVGLLTTLNFGDGPDRNKTRTFQATVLGSQMGLKGSSAGQLVLITARVTTERTAGTCLYFSAVPGILPSSQPPISCSEEGAGNATLSPRMGEECVSVWSHEGLVLTKLLTSEELALCGSR
# notes: Produced in E. coli by Genescript; In the ELISA it was detected with anti 6x His tag HRP, so it probably carries a His tag; also called extracellular domain of the TMEM219 receptor
# Target: T1, Recombinant human IGFBP3 (human, UniProt P17936 28-291)
# T1 construct: also called rhIGFBP3; hIGFBP3
# T1 sequence (P17936 28-291 limits assumed): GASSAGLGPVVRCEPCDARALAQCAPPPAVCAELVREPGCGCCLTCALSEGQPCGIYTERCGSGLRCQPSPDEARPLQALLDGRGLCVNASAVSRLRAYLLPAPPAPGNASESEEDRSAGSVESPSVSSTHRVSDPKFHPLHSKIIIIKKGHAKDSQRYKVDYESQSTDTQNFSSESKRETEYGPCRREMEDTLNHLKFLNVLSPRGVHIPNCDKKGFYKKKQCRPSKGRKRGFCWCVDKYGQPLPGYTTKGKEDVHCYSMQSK
# Experiment: Octet BLI; mAb captured via Fc on anti-mouse/anti-human IgG Fc biosensor, human IGFBP3 at 150 nM
# Experimental: The binding affinity measurements were performed using an Octet instrument (Octet BMIA), which is a Biolayer Interferometry (BLI) platform based on Biomolecular Interaction Analysis.
row,Kd [nM],Binder
1,1.2,B1
2,> 0.001,B2
3,0.61,B3
4,0.85,B4
5,0.69,B5
6,0.85,B6
7,> 0.001,B7
8,> 0.001,B8

# Target: T1, Recombinant human IGFBP3
# Experiment: ELISA: plate coated with rhIGFBP3 4 µg/ml, His-tagged ecto-TMEM219 10 µg/ml added, detection with anti-HisTag HRP, absorbance
# Experimental: We also employed a blocking reagent solution (3% BSA in PBS) and a diluent solution (0.5% BSA, 0.05% Tw in PBS).
# Plate was incubated 90 minutes at 37° C. and washed with PBS (300 μl/well) and incubated with the blocking reagent (200 μl/well) 2 hours at room temperature. […] After washing steps, plate was then incubated at room temperature for 1 hour with anti 6× His tag HRP diluted 1:2000 in Diluent solution (50 μl/well). ELISA plate was then read after adding visualization solution at ELISAreader and adsorbance was measured.
row,binding result,Binder
1,binds,B9
